Among the data in paper PMC11417379 are Kd values, retold here.

In general, Kd refers to the equilibrium constant for the complex coming apart. A low value points to higher affinity.

This data set relates to pTERF1 (Clostridia bacterium (ruminant gut metagenome)). The data set is described as follows: BLI. The settings on record: BLI: PBS, 0.02% Tween, pH 7.4, 25 C, 1:1 global fit; EMSA: 40 nM probe, room temperature 30 min, 6% native PAGE, buffer not stated.

The substance pTERF1 motif probe returned a Kd of 1.87 nM.
